According to CN118290581A (ZHEJIANG ZHENGXI BIOTECHNOLOGY CO LTD, dated 2024):

T1: 人CD138 (human, UniProt P18827 23-310)
T1 construct: whole, on cells; also called syndecan-1; CD138靶抗原
T1 sequence (looked up): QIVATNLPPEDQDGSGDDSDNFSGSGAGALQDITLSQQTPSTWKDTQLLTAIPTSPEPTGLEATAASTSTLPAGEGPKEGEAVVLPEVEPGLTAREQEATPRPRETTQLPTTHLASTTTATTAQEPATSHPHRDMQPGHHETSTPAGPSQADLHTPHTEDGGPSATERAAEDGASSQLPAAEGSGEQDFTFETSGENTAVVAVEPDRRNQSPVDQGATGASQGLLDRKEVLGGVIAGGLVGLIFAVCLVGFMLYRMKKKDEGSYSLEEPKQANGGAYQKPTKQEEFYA

B1: 鼠抗人CD138[ZXCloneHCD138-02]抗体 (antibody, mouse IgG1, kappa, V domains shown)
VH: QVQLQQPGSVLVRPGASVKLSCKTSGYTFTSSWMHWAKQRPGQGLEWIGEIHPNGGNTYYNEKFKGKATLSVDTSSSTAYVDLSSLTSEDSAVYFCATPHYWGQGTTLTVSS
VL: DVVMTQTPLSLPVSLGDQASISCRCRQSLVHSNGNTYLQWYLQKPGQSPILLIYRVSNRFSGVPDRFSGSGSGTDFTLKISRVEAEDLGVYFCSQSTHVPHTFGAGTKLELKR
B2: 自制鼠抗人CD138[ZXCloneHCD138-02]-APC (antibody, mouse IgG1, kappa, V domains shown)
VH: B1 VH
VL: B1 VL
modifications: APC-labelled (site and chain not stated)

What was measured:
[1] = target: T1, 人CD138; experiment: flow cytometry titration of antibody dilutions (from 1 mg/mL) on cultured activated human cells, goat anti-mouse IgG-PE detection
[2] = target: T1, 人CD138; experiment: flow cytometry, APC-labelled antibody on cultured activated cells

Binder | 亲和力(kd) [1] | binding result [2]
B1 | 25.2 | –
B2 | – | binds
